According to the supplement of paper PMC10567573:
± gives the standard deviation.

Experiment: protein stability index of a GFP-peptide fusion (GPS, HEK-293T) (PSI 1-6); higher = more stable
[1] = treatment: DMSO, c terminus: a fixed tail appended
[2] = treatment: MLN4924 1 uM, 8 h, c terminus: a fixed tail appended
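Note: 24-mer peptide tiles fused after GFP, lentivirally expressed, FACS-sorted into six equal bins by GFP/DsRed ratio, decoded by Illumina sequencing, PSI is the read-weighted mean bin number.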

Row | Sequence | protein stability index [1] | protein stability index [2] | protein stability index (treatment: DMSO, c terminus: native) | protein stability index (treatment: MLN4924 1 uM, 8 h, c terminus: native)
1 | LQAALQVLELHHSKLDTTKALNLL [VPS39] | 2.23 ± 0.27 | 2.29 ± 0.21 | – | –
2 | GVYMTDITPQGVAMRAGVLADDHL [PDZK1] | 3.54 ± 0.46 | 3.34 ± 0.21 | – | –
3 | AYDYAKEVNSAEELEGLIADPDEM [FEM1C] | 5.68 ± 0.13 | 5.51 ± 0.56 | – | –
4 | RIFTFICKDSESNKHLCYVFDSEK [GULP1] | 2.06 ± 0.56 | 2.21 ± 0.31 | – | –
5 | LEHVRALIKKYSDHLENVSKLVES [TRIM55] | 3.02 ± 0.28 | 3.1 ± 0.17 | – | –
6 | MGHCCCKPYNCLQCLDKTNESALV [MTUS2] | 3.28 ± 0.3 | 3.4 ± 0.34 | – | –
7 | KVHIGYLPNKQVLGLSKLARIVEI [GCH1] | 2.84 ± 1.1 | 2.48 ± 0.8 | – | –
8 | VYDQAVSIFYDLPQGSGFCLGQLN [SMAD6] | 2.03 ± 0.24 | 2.16 ± 0.32 | – | –
9 | ALSTMGTLICRKLGGVKKSATLRS [TPD52L3] | 2.6 ± 0.2 | 2.67 ± 0.31 | – | –
10 | GSSDKVYAHQMVRTDSREQKLDAF [MLH1] | 4.12 ± 0.13 | 4.13 ± 0.27 | – | –
11 | SFSTGAGGWSNHHFCVILLGFLP [BET1L] | – | – | 2.99 ± 0.39 | 2.99 ± 0.53
12 | PGPVCQPPVSQSRSLFSSVPSKPP [ANKRD40] | 4.34 ± 0.39 | 4.54 ± 0.48 | – | –
13 | QDRFRIELSEEGAEGRVVGRKDIT [MOSPD3] | 4.91 ± 0.23 | 5.1 ± 0.31 | – | –
14 | LAVYIDKVRSLETENSALQLQVTE [LMNB1] | 2.25 ± 0.24 | 2.52 ± 0.083 | – | –
15 | TFRVSSDLIKHQRIHTEEKPYKCQ [ZNF75A] | 3.67 ± 0.15 | 3.8 ± 0.23 | – | –
16 | ANTIRGGGCYFGPDVTQQLLQKYN [PPEF2] | 2.44 ± 0.35 | 2.59 ± 0.41 | – | –
17 | LASQALTPPPGPASAQPLPAPEAA [TFE3] | 5.26 ± 0.25 | 5.24 ± 0.11 | – | –
18 | RVLKAYTLYRPEEGYCQAQAPIAA [TBC1D10A] | 2.08 ± 0.29 | 2.16 ± 0.21 | – | –
19 | SACSFTNSDMQILTASGDGTCALW [GNB5] | 2.33 ± 0.27 | 2.15 ± 0.22 | – | –
20 | QIVQLTQQVDTNISVILPTVHEVD [DENND6A] | 3.07 ± 0.35 | 3.3 ± 0.37 | – | –
21 | TFKSFEDRVGTIKSKVVGDRENGS [TPD52L2] | 4.65 ± 0.062 | 4.7 ± 0.29 | – | –
22 | TLHGNVCSFCKRAFPSGHLLDAHI [ZNF511] | 2.81 ± 0.27 | 2.95 ± 0.46 | – | –

Row | Sequence | protein stability index [1] | protein stability index [2] | protein stability index (treatment: DMSO, c terminus: native) | protein stability index (treatment: MLN4924 1 uM, 8 h, c terminus: native)
23 | TVRGLHCMCTVGERLYVIGGNHFR [KLHL13] | 2.12 ± 0.26 | 2.18 ± 0.2 | – | –
24 | MMGLAQIYKKYALQSAAGKDAAKQ [PDS5B] | 2.8 ± 0.27 | 3.23 ± 0.1 | – | –
25 | IHGENIICEATQIIDYLEQTFLDE [GDAP1] | 2.82 ± 0.22 | 3.12 ± 0.21 | – | –
26 | GSLHYTTLRTLTGQDTMLKAMFSG [KCTD13] | 2.46 ± 0.26 | 2.61 ± 0.21 | – | –
27 | WASTSPGTDLPLSEIPRGVRVALD [TRIM15] | 3.91 ± 0.29 | 3.87 ± 0.26 | – | –
28 | VPRPGIPPMTQAQAVSAPGILNRP [ZNF207] | 4.55 ± 0.063 | 4.45 ± 0.086 | – | –
29 | VARTHLTEDTPKVNADIEKVNQNQ [NSDHL] | 5.08 ± 0.22 | 5.06 ± 0.11 | – | –
30 | TDFKDKIVLDVGCGSGILSFFAAQ [CARM1] | 2.3 ± 0.43 | 2.27 ± 0.27 | – | –
31 | FKDEYKSENIKLREENEKLRLENS [CCDC89] | 5.25 ± 0.15 | 5.2 ± 0.15 | – | –
32 | DLDSCSRDGALLGCSLTADGLPLH [MYORG] | 3.32 ± 0.28 | 3.51 ± 0.3 | – | –
33 | ADIPQDQLVVMHPTPQVDELDILP [BTBD10] | 5.11 ± 0.17 | 5.24 ± 0.15 | – | –
34 | CALGDHGCEHSCVSSEDSFVCQCF [MATN2] | 4.25 ± 0.35 | 4.33 ± 0.3 | – | –
35 | LNEEQTLQEVPTGLDSISHDSANC [ETS2] | 5.54 ± 0.073 | 5.33 ± 0.18 | – | –
36 | SGRRGPPPPPRSRGPPRGLRGGRG [RBMX] | 4.87 ± 0.25 | 5.14 ± 0.3 | – | –
37 | EKFVFFIGSKNGGKTTIILRCLDR [DYNC2LI1] | 3.27 ± 0.27 | 2.53 ± 0.22 | – | –
38 | GEVLSYLELAQFHNAHQLAAWCLH [RHOBTB1] | 2.7 ± 0.81 | 2.35 ± 0.25 | – | –
39 | FLCVLMSDWFNFHGHMCIAFELLG [CLK3] | 3.2 ± 0.3 | 3.11 ± 0.42 | – | –
40 | QGEQLEVPERLLVVLDMEEGTLGY [SPSB2] | 2.86 ± 0.34 | 3.06 ± 0.24 | – | –
41 | NYSQDAADACDIDEIEEVPTTSHR [NETO1] | 5.55 ± 0.18 | 5.49 ± 0.17 | – | –
42 | PFIVFGATGLTSGLLSLLLPETLN [SLC22A15] | 3.19 ± 0.49 | 3.14 ± 0.42 | – | –
43 | TNSTPLRAACFDGHLEIVKYLVEH [FEM1C] | 2.28 ± 0.49 | 2.39 ± 0.55 | – | –
44 | MRGVAEVKEPCSLPMLSVDMENKE [SAMD13] | 5.32 ± 0.18 | 5.53 ± 0.21 | – | –

Row | Sequence | protein stability index [1] | protein stability index [2] | protein stability index (treatment: DMSO, c terminus: native) | protein stability index (treatment: MLN4924 1 uM, 8 h, c terminus: native)
45 | ERILGPSHPDTSYYIRYRGAVYAD [FEM1A] | 2.94 ± 0.2 | 2.92 ± 0.29 | – | –
46 | EAVFLRAVKLYNSGDFRSSTEDME [P3H4] | 3.69 ± 0.36 | 3.73 ± 0.52 | – | –
47 | GLQPVVFVLFLFAYLVTVRGNLSI [OR3A1] | 2.6 ± 0.47 | 2.19 ± 0.21 | – | –
48 | GGAGSSEDDAQSRRDEQDDDDKGD [GOLPH3] | 5.57 ± 0.24 | 5.69 ± 0.28 | – | –
49 | DFDLDLVPWESDIWDINNQICTVK [ATF6] | 3.06 ± 0.3 | 3 ± 0.21 | – | –
50 | HVAGEQMLEDGPHNANRGQRLLAF [CCDC70] | 4.07 ± 0.25 | 4.04 ± 0.24 | – | –
51 | AGCCQVFDALDDYEHHYHTLHGNV [ZNF511] | 2.84 ± 0.35 | 2.88 ± 0.23 | – | –
52 | AKNLQEAEEWYKSKYADLSDAANR [PRPH] | 4.43 ± 0.18 | 4.48 ± 0.22 | – | –
53 | LLCPETYVWVPIEQCLPSLENSKY [ATE1] | 2.19 ± 0.15 | 2.03 ± 0.18 | – | –
54 | SRVLQNGGDKLETMPLYLEDDIRP [SCD] | 4.66 ± 0.23 | 4.53 ± 0.21 | – | –
55 | ARDRQPSDFKTDKEGGQAGSGQRV [ELOA2] | 5.26 ± 0.33 | 5.26 ± 0.26 | – | –
56 | MENIGAIQVLPKLSSSIIHEIDSI [KCNAB2] | 3.53 ± 0.34 | 3.51 ± 0.29 | – | –
57 | HSDPEESFARDLPDFPSINMDPAG [RETREG3] | 5.19 ± 0.25 | 5.22 ± 0.16 | – | –
58 | MDPPNPEEVKTPEEEMRSHYVAQT [GAGE1] | 5.44 ± 0.087 | 5.4 ± 0.2 | – | –
59 | NTVKVQVLYPDGQAQMIHPKPADF [INTS4] | 3.05 ± 0.48 | 3.08 ± 0.27 | – | –
60 | LQLNARSFMMGQGGEAAHHTRSPY [NEUROD6] | 2.99 ± 0.22 | 3.37 ± 0.32 | – | –
61 | TRQKKNLPDSPLRFDGLPAVLGFP [TRIM15] | 2.85 ± 0.3 | 2.92 ± 0.3 | – | –
62 | KQLEFGLKEAPVQDQGYKTLRLRE [ZNF8] | 4.3 ± 0.31 | 4.27 ± 0.22 | – | –
63 | GLQSAQPTEGQGSLLTNWPSVPPT [MYBL2] | 4.02 ± 0.28 | 4.14 ± 0.092 | – | –
64 | MAHVDFRPPAYSPAQRSHTYTHGL | 2.8 ± 0.25 | 2.88 ± 0.32 | – | –
65 | LEQTAREILTLLQGVHQGAGFQDI [TSN] | 3.07 ± 0.32 | 2.81 ± 0.38 | – | –
